Experimental data from patent US20120308522A1.

What was measured:
[1] = molecular target: high-affinity receptors for VEGF in HUVECs; test: cell-based or functional assay
[2] = molecular target: Flt-1 VEGF receptor (human (on HUVEC)) (UniProt P17948); test: cell-based or functional assay
UniProt P17948, sequence (P17948 27-1338): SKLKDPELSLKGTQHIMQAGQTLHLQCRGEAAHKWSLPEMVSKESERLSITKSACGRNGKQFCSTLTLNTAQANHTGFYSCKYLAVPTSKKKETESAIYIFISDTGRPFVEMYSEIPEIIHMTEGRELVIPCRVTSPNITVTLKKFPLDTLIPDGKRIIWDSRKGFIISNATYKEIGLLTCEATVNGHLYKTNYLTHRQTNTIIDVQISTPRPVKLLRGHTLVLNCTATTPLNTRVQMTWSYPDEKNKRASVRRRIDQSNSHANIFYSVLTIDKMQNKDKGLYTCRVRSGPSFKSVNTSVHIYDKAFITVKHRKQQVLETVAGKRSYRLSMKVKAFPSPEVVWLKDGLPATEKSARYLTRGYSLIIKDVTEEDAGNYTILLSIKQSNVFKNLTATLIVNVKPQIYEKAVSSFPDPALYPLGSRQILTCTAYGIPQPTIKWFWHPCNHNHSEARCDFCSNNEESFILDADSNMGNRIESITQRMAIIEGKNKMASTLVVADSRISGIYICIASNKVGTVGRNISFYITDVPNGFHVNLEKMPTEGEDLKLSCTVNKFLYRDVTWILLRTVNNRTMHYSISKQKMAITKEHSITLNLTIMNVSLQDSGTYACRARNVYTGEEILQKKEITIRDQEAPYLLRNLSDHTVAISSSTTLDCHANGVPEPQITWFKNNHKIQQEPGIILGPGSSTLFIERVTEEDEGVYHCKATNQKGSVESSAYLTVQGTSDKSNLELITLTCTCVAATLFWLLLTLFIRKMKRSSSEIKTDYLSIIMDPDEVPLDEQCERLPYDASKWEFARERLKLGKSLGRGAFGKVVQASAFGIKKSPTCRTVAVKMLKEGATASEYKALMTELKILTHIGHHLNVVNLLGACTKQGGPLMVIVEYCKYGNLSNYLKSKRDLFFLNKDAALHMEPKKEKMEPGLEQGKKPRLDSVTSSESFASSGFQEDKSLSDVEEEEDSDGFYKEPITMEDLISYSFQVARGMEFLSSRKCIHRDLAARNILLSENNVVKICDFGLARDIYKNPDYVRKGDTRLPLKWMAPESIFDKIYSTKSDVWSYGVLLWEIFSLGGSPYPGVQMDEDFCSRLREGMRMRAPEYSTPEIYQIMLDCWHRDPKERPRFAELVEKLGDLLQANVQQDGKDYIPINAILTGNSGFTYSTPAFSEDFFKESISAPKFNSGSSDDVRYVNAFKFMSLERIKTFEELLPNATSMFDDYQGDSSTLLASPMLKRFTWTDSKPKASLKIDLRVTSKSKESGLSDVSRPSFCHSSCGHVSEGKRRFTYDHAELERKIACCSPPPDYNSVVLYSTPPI

| arachidonic acid release from prelabelled HUVEC, concentration of maximum effect [1] | arachidonic acid release from prelabelled HUVEC, half-maximum effect [1] | mean increase in release of labelled arachidonic acid above basal level [1] | mean fold increase in 6-keto PGF1a above control, 60 min with 60 ng/ml P1GF [2] | Molecule |
| --- | --- | --- | --- | --- |
| 10 to 20 ng/mL | 2.5 to 5 ng/mL | 1.6 fold | – | recombinant human VEGF (vascular endothelial growth factor) (from UniProt P15692 27-191) (ligand) |
| – | – | – | 1.3 fold | recombinant placenta growth factor (P1GF) (ligand, UniProt P49763-2 21-149, looked up) AVPPQQWALSAGNGSSEVEVVPFQEVWGRSYCRALERLVDVVSEYPSEVEHMFSPSCVSLLRCTGCCGDENLHCVPVETANVTMQLLKIRSGDRPSYVELTFSQHVRCECRPLREKMKPERCGDAVPRR |
